Measured values as given in doi:10.1101/2025.03.13.642734.

Target: ExsA-His6 (Pseudomonas aeruginosa) (UniProt P26993)
UniProt P26993, sequence (P26993 whole entry): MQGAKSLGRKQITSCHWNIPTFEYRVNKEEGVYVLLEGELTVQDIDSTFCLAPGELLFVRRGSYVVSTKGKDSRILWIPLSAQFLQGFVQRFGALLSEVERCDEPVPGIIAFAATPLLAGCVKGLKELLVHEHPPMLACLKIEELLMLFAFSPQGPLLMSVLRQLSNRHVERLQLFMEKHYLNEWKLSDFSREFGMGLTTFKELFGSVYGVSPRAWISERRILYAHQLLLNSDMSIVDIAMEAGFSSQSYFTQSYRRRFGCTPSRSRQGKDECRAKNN

For GST-Dap2 (natural protein), the EMSA: ExsA-exsC promoter DNA complex with increasing concentrations of GST-Dap2 was 1 µM.
